Measured values published in patent WO2008044032A2 (dated 2008).

Molecular target: T1, CD20 on the CD20+ human Daudi Burkitt lymphoma cell line (human, UniProt P11836 1-297)
T1 construct: whole, on cells; also called Daudi cells
T1 sequence (looked up): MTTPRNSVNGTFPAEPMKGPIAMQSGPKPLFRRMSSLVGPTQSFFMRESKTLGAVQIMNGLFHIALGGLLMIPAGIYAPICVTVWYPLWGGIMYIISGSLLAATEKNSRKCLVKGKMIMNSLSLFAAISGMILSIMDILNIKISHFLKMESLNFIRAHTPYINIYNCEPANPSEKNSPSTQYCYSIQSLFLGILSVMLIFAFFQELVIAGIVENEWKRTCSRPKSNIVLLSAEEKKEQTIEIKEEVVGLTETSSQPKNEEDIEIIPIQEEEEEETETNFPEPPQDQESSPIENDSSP
Experiment: FACS binding assay on CD20+ Daudi cells, serial dilutions of antibody

B1: chimeric anti-CD20 antibody (unmodified chimeric Leu 16) (antibody, human IgG1, V domains shown)
VH: EVQLQQSGAELVKPGASVKMSCKASGYTFTSYNMHWVKQTPGQGLEWIGAIYPGNGDTSYNQKFKGKATLTADKSSSTAYMQLSSLTSEDSADYYCARSNYYGSSYWFFDVWGAGTTVTVSS
VL: DIVLTQSPAILSASPGEKVTMTCRASSSVNYMDWYQKKPGSSPKPWIYATSNLASGVPARFSGSGSGTSYSLTISRVEAEDAATYYCQQWSFNPPTFGGGTKLEIK
notes: Only the variable regions are printed
binding result: binds
